In the DeepSol protein solubility set:

test: soluble on expression in E. coli; label from the status in PepcDB or PDB records

Sequence	soluble on expression in E. coli
MTDLVAVWDVALSDGVHKIEFEHGTTSGKRVVYVDGKEEIRREWMFKLVGKETFFVGAAKTKATINIDAISGFAYEYTLEIDGKSLKKYMENRSKTTSTWVLRLDGEDLRVVLEKDTMDVWCNGQKMETAGEFVDDGTETHFSVGNHGCYIKAVSSRKRKEGIIHTLIVDNREIPELTQ	soluble
MIFEDKFIITTADEIPGLQLYSLGIASTISDNVDEIVENLRKQVKAKGGMGLIAFRITCADGKFLGYGTIVKADEAQFTMA	soluble
MGSDKIHHHHHHMKEILLKAENVRAYYKLEKVSVKAVDGLSFEILEDEVIGVVGESGCGKTTLSNVIFMNMVKPLTLVDGKIFLRVNGEFVELSSMTRDEVKRKFWGKEITIIPQAAMNALMPTIRMEKYVRHLAESHGIDEEELLDKARRRFEEVGLDPLWIKRYPFELSGGMRQRAVIAIATILNPSLLIADEPTSALDVVNQKVLLKVLMQMKRQGIVKSIIFITHDIATVRQIADRMIIMYAGKIVEFAPVESLLEKPLHPYTQGLFNSVLTPEPEVKKRGITTIPGAPPNLINPPSGCRFHPRCPHAMDVCKEKEPPLTEIEPGRRVACWLYMEERA	not soluble
MEPVLFYGVPHGCSFGSIVALEWLGRPYRLCRIEMPLDTGERTYVRLNPARQTPTLLLEDGRALSESLAILQHLAARDLCRKLGYPQGSAEFDELNFALALLHTECHSAWGALFYLEDADATTTARALTRAARAYGRIDKLLGDRKWLAGEGPSVADAYLAGTARWGRELGYFDLQHDFPRLHRHLEKLEQDPAVRFAHAIEDRLPAQSCGEFRGEVTLAEVASRLLA	not soluble
AHHHHHHGSGKLDWIREELEELKKKGLYVTIRVLQSAQGPWVIVNGKKVLNMCSNNYLGLAAHPKIKEAAIRAILDYGVGAGAVRTIAGTMDLHVELEEKLAKFKKREAAILFQSGYNANLGAISALLRKGEDGVFLSEELNHASIIDGMRLSGAPKVIYKHLDMEDLKKKLEENKDKKKKIIVTDGVFSMDGDLAPLPEIVELAEQYDAIVYVDDAHGEGVLGSHGRGIVDHFNLHDKVDFEMGTLSKAFGVIGGYVAGPEEAIEYLKQRARPFLFSSAPNPPDVAAAIAAVEILQKSDDLVKKLWDNTHFLQKGLRDLGYDLGNTKHPITPVMLYDEKLAQEFSRRLFEEYNIFAQAIVYPTVPLGTARIRLEPSAAHTKEDLKLVIDAFEDLGRKTGFLK	soluble
MSYFGGLISTLFERRYQQALSDEVDSRTTCELCEALLSSHGEVSGVTLARNLLDRYAAMTEAEKTALFGFMAHDLEIDPDAVTHTLEAYKNNPGKDTYRAFAAACEPRRQELARRLNQVPGATGQLVQMRKDLLRMMKDHPDLEPVDVDFKHLFSSWFNRGFLVLRPIDWSSPANILEQIIAYEAVHEIDSWDELRRRLQPSDRRCFGFFHPSMADEPLIFVEVALTEGVPSSVQDLLADERDVITAQDADTAVFYSISNCQSGLAGISFGNSLIKQVVADLAKDLPGLTTFVTLSPIPGLNRWLQDADIDALKDADTQALAAHYLLEAKRSDGMPFDPVARFHLGNGALVHAVHAEADVSPNGRKQSNGAMVNYLYDLSQISQNHEKFVGDKIVVASTTVKALSGSVTTSLGTAAAAAALEHHHHHH	soluble
MGSDKIHHHHHHMQVEQRTLNTAAHPFQITAYWLDQISDFETAVDYPIMIICPGGGFTYHSGREEAPIATRMMAAGMHTVVLNYQLIVGDQSVYPWALQQLGATIDWITTQASAHHVDCQRIILAGFSAGGHVVATYNGVATQPELRTRYHLDHYQGQHAAIILGYPVIDLTAGFPTTSAARNQITTDARLWAAQRLVTPASKPAFVWQTATDESVPPINSLKYVQAMLQHQVATAYHLFGSGIHGLALANHVTQKPGKDKYLNDQAAIWPQLALRWLQEQGLLAGNY	not soluble
MSLSKVRISSKIEDCEEIINQYGGNYLSHLIYSGDKQFFTNENKTAFLMYRYKASSLVVLGDPLGDENAFDELLEAFYNYAEYLGYDVIFYQVTDQHMPLYHNFGNQFFKLGEEAIIDLTQFSTSGKKRRGFRATLNKFDELNISFEIIEPPFSTEFINELQHVSDLWLDNRQEMHFSVGEFNEEYLSKAPIGVMRNEENEVIAFCSLMPTYFNDAISVDLIRWLPELDLPLMDGLYLHMLLWSKEQGYTKFNMGMATLSNVGQLHYSYLRERLAGRVFEHFNGLYRFQGLRRYKSKYNPNWEPRFLVYRKDNSLWESLSKVMRVIRHKEGHHHHHH	soluble
MNSNGPLMEHGKRRVAYYYDSNIGNYYYGQGHVMKPHRIRMTHHLVLNYGLYRNLEIFRPFPASFEDMTRFHSDEYMTFLKSANPDNLKSFNKQMLKFNVGEDCPLFDGLYEFCQLSSGGSLAAATKLNKQKVDIAINWMGGLHHAKKSEASGFCYTNDIVLGILELLKYHKRVLYVDIDVHHGDGVEEAFYTTDRVMTVSFHKYGDFFPGTGDLKDIGAGKGKLYSVNVPLRDGITDVSYQSIFKPIMTKVMERFDPCAVVLQCGADSLNGDRLGPFNLTLKGHGECARFFRSYNVPLMMVGGGGYTPRNVARCWTYETSIAVDKEVPNELPYNDYFEYFGPNYRLHIESSNAANENSSDMLAKLQTDVIANLEQLTFVPSVQMRPIPEDALSALNDDSLIADQANPDKRLPPQITDGMIQDDGDFYDGEREGDDRRNESDAKRAAQFESEGGEKRQKTE	not soluble
MQKSYGVALESPTGSGKTIMALKSALQYSSERKLKVLYLVRTNSQEEQVIKELRSLSSTMKIRAIPMQGRVNMCILYRMVDDLHEINAESLAKFCNMKKREVMAGNEAACPYFNFKIRSDETKRFLFDELPTAEEFYDYGERNNVCPYESMKAALPDADIVIAPYAYFLNRSVAEKFLSHWGVSRNQIVIILDEAHNLPDIGRSIGSFRISVESLNRADREAQAYGDPELSQKIHVSDLIEMIRSALQSMVSERCGKGDVRIRFQEFMEYMRIMNKRSEREIRSLLNYLYLFGEYVENEKEKVGKVPFSYCSSVASRIIAFSDQDEEKYAAILSPEDGGYMQAACLDPSGILEVLKESKTIHMSGTLDPFDFYSDITGFEIPFKKIGEIFPPENRYIAYYDGVSSKYDTLDEKELDRMATVIEDIILKVKKNTIVYFPSYSLMDRVENRVSFEHMKEYRGIDQKELYSMLKKFRRDHGTIFAVSGGRLSEGINFPGNELEMIILAGLPFPRPDAINRSLFDYYERKYGKGWEYSVVYPTAIKIRQEIGRLIRSAEDTGACVILDKRAGQFRKFIPDMKKTSDPASDIYNFFISAQAREKYGA	soluble
MQETMLDLRTVYECNRCLGCKTLHPQVGIINLENPSLEEDAVKFEFYAVLLIEDCPGGCCCCGRKYYDYSNATMVFLTPGEIFRMSKENTLPDKGYLLAFHPDLLFRTSLKNHIKNYTFFHYRKEEALHLSRRETEKVTCCLSNIEDELHHPIDTHSSIILSRHIELLLDYCTRYYERQFITRENKNKALLENMERLFVEYIASGRLQGGKLPTSGYMAGELDLSVAYFDDLLKFETGKTLEEYLQLKRLDIARHMLLQDGHTPAAVARKLGYPNVQCFSVLFKKITGVAPSDYRLSQN	not soluble
MSPLKPLYKLYEWYISRNLRRDRMPRHVAIIMDGNRRYSKLQGSMNPIEGHKKGIETLEKVLDWCVDLGIEIVTAYAFSTENFKRPEKEVKGLMKLFRENFEAIASNEKIHKNRVRVRAVGKLELLPEDVRRAIEIAEKSTEQYSDRLVNIAIGYDGRQEIVDATRKIAEDVKAGLIDPEDIDEDMINRNLYTAGLEDPHLIIRTSGEERLSGFLLWQSSYSELYFCDSLWPELRKVDFLRAIRSYQQRERRFGV	soluble
SLKTPGYPDGPIAIYGDNIFLYSEPTAEEAARFDVVINCAREVSNPFEINKATRRPMSIAEPDTAVSTASFMTAWEFPQGDDSAETPTTPKALQFQEPEYIHIPWDHNTDIAPDLMDLCHVVDDRTKAGKRVLIHCQQGASRSASLIIAYGLFQRPELTVNDAYYAAQAKSQWISPNMKLMYSLQDFQKEVSTKRTAQPSNREG	soluble
MKKGVHLVFILVASLLSSFSVMAQSLQASVNKTEVAKNEVINLRIMADSEVASDAIDFSVLEKDFFLGQPRYGRSSNNINGRKYQRTEWSISIAPMKEGIITIPSFSADGMKTEPIQLKVTANKSAPDLDDLFSFNMSVDNHTLYPQQSANLRMQLIIKADTRRLDNPQVV	not soluble
MAPATERNRDAILAVLKDELRSPGTVLEIASGTGEHGAYFAPQLPDYFWQPSDPNEESRRSIAAWRSHVNAPNLGEAIAIDVTRSDWVESVPEFPQPVVAIAAINLIHISPWEATLGLFAGAKQLLSVDGLIYLYGAYKRGGQHTAPSNEAFDASLQARNPAWGARNLEDVTAVAEAEQFRLDRIVEMPSNNLSVCFRAIALEHHHHHH	not soluble
MRIFERYNPSKVAKYVKTLFRGRLYIKGVGAFEFDYGKILLPKKQDKQHLLVMSEVNRQVIRLQAEMGLEHHHHHH	not soluble
QLSSFETCAEKEESANTTESAIFEYHCEMSFDPNLLHNNGHNGYPNGTSAALRETGVIEKLLTSYGFIQCSERQARLFFHCSQYNGNLQDLKVGDDVEFEVSSDRRTGKPIAVKLVKIKQEILPEERMNGQVVCAVPHNLESKSPAAPGQSPTGSVCYERNGEVFYLTYTPEDVEGNVQLETGDKINFVIDNNKHTGAVSARNIMLLKKKQARCQGVVCAMKEAFGFIERGDVVKEIFFHYSEFKGDLETLQPGDDVEFTIKDRNGKEVATDVRLLPQGTVIFEDISIEHFEGTVTKVIPKVPSKNQNDPLPGRIKVDFVIPKELPFGDKDTKSKVTLLEGDHVRFNISTDRRDKLERATNIEVLSNTFQFTNEAREMGVIAAMRDGFGFIKCVDRDVRMFFHFSEILDGNQLHIADEVEFTVVPDMLSAQRNHAIRIKKLPKGTVSFHSHSDHRFLGTVEKEATFSNPKTTSPNKGKEKEAEDGIIAYDDCGVKLTIAFQAKDVEGSTSPQIGDKVEFSISDKQRPGQQVATCVRLLGRNSNSKRLLGYVATLKDNFGFIETANHDKEIFFHYSEFSGDVDSLELGDMVEYSLSKGKGNKVSAEKVNKTHSVNGITEEADPTIYSGKVIRPLRSVDPTQTEYQGMIEIVEEGDMKGEVYPFGIVGMANKGDCLQKGESVKFQLCVLGQNAQTMAYNITPLRRATVECVKDQFGFINYEVGDSKKLFFHVKEVQDGIELQAGDEVEFSVILNQRTGKCSACNVWRVCEGPKAVAAPRPDRLVNRLKNITLDDASAPRLMVLRQPRGPDNSMGFGAERKIRQAGVID	soluble
MAKGQNAPIRRRTLTRDKVVDAAIEIIDEHGWEQLSMTSLSARLNVVTASLYNHVRNLDDIRGAVQVRTMTELGAHLREIAMGRTGPDGLRALVDAHRAWATQHPHRYQTLTTSPVDRDAFISAALDANTALRTMLASCGLPPEDTLDAAVSIFAAMHGFVMLVNTDFLGDELDLDSIYESVLRGALSSVGWPERTHTPS	not soluble
MQQLQNVIETAFERRADITPANVDTVTREAITHVIDLLDTGALRVAEKIDGQWVTHQWLKKAVLLSFRINDNQVMEGAETRYYDKVPMKFAGYDEARFQREGFRVVPPATVRKGAFIARNTVLMPSYVNIGAFVDEGTMVDTWATVGSCAQIGKNVHLSGGVGIGGVLEPLQANPTIIEDNCFVGARSEVVEGVIVEEGSVISMGVFIGQSTRIYDRETGEVHYGRVPAGSVVVSGNLPSKDGSYSLYCAVIVKKVDAKTRSKVGINELLRTID	not soluble
MSLDQREILQKFLDEAQSKKITKEEFANEFLKLKRQSTKYKADKTYPTTVAEKPKNIKKNRYKDILPYDYSRVELSLITSDEDSSYINANFIKGVYGPKAYIATQGPLSTTLLDFWRMIWEYSVLIIGMACMEYEMGKKKCERYWAEPVEMQLEFGPFSVSCEAEKRKSDYIIRTLKVKFNSETRTIYQFHYKNWPDHDVPSSIDPILELIWDVRCYQEDDSVPICIHCSAGCGRTGVICAIDYTWMLLKDGIIPENFSVFSLIREMRTQRPSLVQTQEQYELVYNAVLELFKRQMDVIRDKHSGTESQAKEGHHHHHH	soluble
